From the supplement of paper PMC9170038

Tests used:
[1] = tested on: MS2 coat protein; test: apparent KD of MS2 coat protein; designed switch direction (-1 OFF switch, 1 ON switch): 1; higher = weaker reporter binding; conditions: Eterna round: R98
Protocol: (§1)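 RNA-MaP: designed FMN/MS2 RNA switches (84 nt design region) are transcribed on-chip within common flanks and titrated with SNAP-549-labelled MS2 coat protein (about 1-3000 nM) in 100 mM Tris pH 7.5, 80 mM KCl, 4 mM MgCl2, without or with 200 uM FMN. Median apparent KD per design; activation ratio = KD,OFF / KD,ON.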

[2] = tested on: MS2 coat protein; test: apparent KD of MS2 coat protein; higher = weaker reporter binding; conditions: Eterna round: R101
Protocol: as §1

Sequence	apparent KD of MS2 coat protein ([1]; input ligand: FMN 200 uM) [nM]	apparent KD of MS2 coat protein ([1]; input ligand: none) [nM]	apparent KD of MS2 coat protein ([2]; input ligand: FMN 200 uM) [nM]	apparent KD of MS2 coat protein ([2]; input ligand: none) [nM]
CCUGACACUUGAGGAUAUGCUCAGGAAUACUGAGCAGAAGGCAGGGAAACCUGAGGAUCACCCAGGUAAGUCAGGAAUAAUAAA [Same State NG1 - A3C, U17G Submission 2A]	21.9	62	–	–
CAUGUCCACACAGGAUAUGCUGGACUUUGUCCAGCAGAAGGGUGAACAUGAGGAUCACCCAUGUAAAGGACAUGUAUAUUUAAU [Denovo 16]	93.3	715	–	–
GGUCUGAUAUGAGGAUAUGCUCAGGAUAACUGAGCAGAAGGCAUGUGAAAACAUGAGGAUCACCCAUGUAUGAUCUACAGACCA [Same State NG1 - WT Aptamer 4D]	22.7	55.6	–	–
CAACAAUGGUGAGGAUAUGCAAAGGAUCACCUUGUAGAAGGCAUCAGGUAGAAGGUGCAGAGGAUCACCCUGUAAGGAUAUAUC [pwkr2 ssNG1 DX.21]	69.9	176	–	–
GUAGCAGCGGCGCCCUCGUAGACAUGAGGAUCACCCAUGUCGCAGGAUAUCAGAAGCGGAGCUGCUGAGAAGGGCGACAUAAGG [Quorus] (puzzle (switch architecture): Exclusion NG 3)	–	–	13.8	7.25
CCAGUUCUGGCAUCCUUAUUACAUGAGGAUCACCCAUGUUGUGAGGAUAUCCCAACCCACGGUCAGGAGAAGGCACAUAGAGGG [Eduscebira] (puzzle (switch architecture): Exclusion NG 3)	–	–	5.37	5.89
AAGUGAAAUCAGAAGGCGUGGACGAAACGUCCACGAGGAUAUGAGGAUCACCCAUAUCAGGUCAGCCUGCAAAGCAGGCUGACC [#SharedSequence - IExNG1: 5-2] (puzzle (switch architecture): Inverted Exclusion NG 1)	–	–	537	30.2
GGAUAGGACAGAGGAUAUACGUGCUAGAGAUACUAGCAAAAUAUCCUCACAUGAGGAUCACCCAUGUAGAAGGCUGUCCUAUCG (puzzle (switch architecture): Exclusion NG 2)	–	–	20.1	5.49
UUUAAUAUUAUAGGAUAUGGAUACGAUACGUAUCCAGAAGGGUGAUUAUAAUAUAAUCUAUACAUGAGGAUCACCCAUGUUUAU [AtrosYaY8] (puzzle (switch architecture): Same State NG 1)	–	–	84.8	205
AGGAGAAAUGUAGGAUAUGGGCGGGCGUAUGGGCAAAGCGCAUACGCCCGCCCAGAAGGACAUGAGGAUCACCCAUGUUUCCCU [#Lowering the energy 2] (puzzle (switch architecture): Small Loop Exclusion NG 1)	–	–	13.8	11.7
GUAGCAUACGGAGGAUAUUCAUACCGGAAACGGACAUGAGGAUCACCCAUGUGGCGAAAGCCUUGGGAGAAGGCCGUAUGCUAC [#DoubleMagnetSystem - Mat - Same State NG 2 - JL Mod - D 61] (puzzle (switch architecture): Same State NG 2)	–	–	8.06	187
AAUAAAGAUCCUAGAGGAUCACCCUAGGAUAUGAGGCUGCACCUCGGAUAAUCCGAGGUGCAGCCUCAGAAGGAGGAAAUAAAU [#SharedSequence - SLExNG3: 5-2] (puzzle (switch architecture): Small Loop Exclusion NG 3)	–	–	25.8	11.6
GGAUAGGACAGAGGAUAUACGUGCUAGAGAUACUAGCAAAAUUUCCUCACAUGAGGAUCACCCAUGUAGAAGGCGGUCCUAUCG (puzzle (switch architecture): Exclusion NG 2)	–	–	8.8	5.37
AGUCGGAGCAGAGGAUAUUACAUGAGGAUCACCCAUGUAUGAACCAAUAGCUGGAAACAGCAAUGUAAGAAGGCUGCUCCGACA (puzzle (switch architecture): Exclusion NG 2)	–	–	169	12.9
GGCAGCUUUCAGAAGGGAGUGCGAUAAUCGCACUCAGGAUAUGAGGAUCACCCAUAUCAUGCUGCCACUGAGGCAAAGCCUCAG [#SharedSequence - IEx NG 3-1] (puzzle (switch architecture): Inverted Exclusion NG 1)	–	–	13.3	11
CCGACGACUUAGAAGGCACUCGCAUAAUGCGAGUGAGGAUAUGAGGAUCACCCAUAUCAACGUCGGAGUCACCGAAACGGUGAC [#SharedSequence - IEx NG 4-2] (puzzle (switch architecture): Inverted Exclusion NG 1)	–	–	7.98	8.45

Sequence	apparent KD of MS2 coat protein ([1]; input ligand: FMN 200 uM) [nM]	apparent KD of MS2 coat protein ([1]; input ligand: none) [nM]	apparent KD of MS2 coat protein ([2]; input ligand: FMN 200 uM) [nM]	apparent KD of MS2 coat protein ([2]; input ligand: none) [nM]
GGAGAUACAUGAGGAUCACCCAUGUAGGAUAUCGGGCCCGUGCCCGGCGAAAGCCGGGCACGGGCCGAGAAGGGCGUACACACC [#LOL-3] (puzzle (switch architecture): Small Loop Exclusion NG 3)	–	–	7.66	8.78
AAAGAUUUUUAAGGAUAUGACUCCGAAACGGAGUCAGAAGGUGAGGAUCACCCACCUAGCUCAGCGUCGAAAGACGCUGAGCAA [#SharedSequence ExNG1 - 24] (puzzle (switch architecture): Exclusion NG 1)	–	–	11	8.75
CGCUAUUACAUGAGGAUCACCCAUGUAUACAUGGGAUUGUCGUAGGAUAUGCAGAAGAUUAAAGUGCAGAAGGACGGUAUAGCG [JR #DistanceClose #Static #StaticP #NP SSNG3 Sub068] (puzzle (switch architecture): Same State NG 3)	–	–	1.03	3.46
AAUUAAAUCCUAGGAUAUCAGUGGCAAAGCCACUGAGAAGGAGGAUCACCCUUUCAAACGUGACGCUGGAAACAGCGUCACGAA [#SharedSequence - ExNG1-18] (puzzle (switch architecture): Exclusion NG 1)	–	–	444	699
CCGACGCUUCAGAAGGCACUCGCAUAAUGCGAGUGAGGAUAUGAGGAUCACCCAUAUCAACGUCGGAGUCACCGAAACGGUGAC [#SharedSequence - IEx NG 2-2] (puzzle (switch architecture): Inverted Exclusion NG 1)	–	–	14.4	8.54
GGAGAUACAUGAGGAUCACCCAUGUAGGAUAUAUAGUAUAUAUAUGGCGAAAGCCAUAUAUAUAUAUAGAAGGGCGUACACACC [#LOL-14] (puzzle (switch architecture): Small Loop Exclusion NG 3)	–	–	7.28	8.22
AGUGUCAUCGAGAAGGCCUCAACAUGAGGAUCACCCAUUUUGAAAAGUGGGAGGAUAUCGAUGAUACAGCUACGUUUCGUAGCA [salish99_InSLSSNG1_023 #HINGE] (puzzle (switch architecture): Inverted Small Loop Same State NG 1)	–	–	132	107
AAAUAACUUGAAGGAUAUGACCCUCGAGGUGACUAAAAGUCACCUCGAGGGUCAGAAGGUCGAGGAUCACCCGACCAAAUAAAU [#SharedSequence SLExNG1: 10] (puzzle (switch architecture): Small Loop Exclusion NG 1)	–	–	11.2	10.9
CUGGUUGUCGUAGGAUAUGUAGGAUAUUCCUACAUGAGGAUCACCCAUGUUCGCAUGGAAGAAGGACAGAAGGACGAUGACCAC [salish99_SSNG2_013 #endbits investigation] (puzzle (switch architecture): Same State NG 2)	–	–	9.19	1050
GGAGAUACAUGAGGAUCACCCAUGUAGGAUAUCGGGCCCGUACCCGGCGAAAGCCGGGUACGGGCCGAGAAGGGCGUACACACC [#LOL-4] (puzzle (switch architecture): Small Loop Exclusion NG 3)	–	–	9.27	9.3
UGAUAGGACAGAGGAUAUACGUGCUAGAGAUACUAGCAAAAUUUCCUCACAUGAGGAUCACCCAUGUAGAAGGCUGUCCUAUCU [#PyrimidineMS2Turnoff - Eli xng 2.01 rotated] (puzzle (switch architecture): Exclusion NG 2)	–	–	533	16.5
UUGGACGUCGUAGGAUAUGUAGGAUAUUCCUACAUGAGGAUCACCCAUGUUGAAAUGGAAGAAGGACAGAAGGACGAUGUCCAU (puzzle (switch architecture): Same State NG 2)	–	–	3.83	19.4
UGGUACUAGGGAGGAUAUGGGAAGAUACAUGAGGAUCACCCAUGUUUAAGAAUGCCGAGAGGCAACUAGAAGGCCCUAGUACCU (puzzle (switch architecture): Same State NG 2)	–	–	18.9	437
GUACAUGAGGAUCACCCAUGUCACAUAACGUCCGAGGAUACCAGAAGGGCAGACGUUACGACGGUGCAGGAUAUGGGCUCCUAA [Beceanbe] (puzzle (switch architecture): Inverted Same State NG 3)	–	–	37.2	56.6
AUAUGAUUAAGAGGAUAUAUACAACAUGAGGAUCACCCAUGUACCCAUGUAGUAGAAGGUUUAUUUUUAUAUAAUAAUAUAAUU [AstrosLoopssng1#12] (puzzle (switch architecture): Small Loop Same State NG 1)	–	–	61.4	82.9
